tested on: Escherichia coli TOP10; assay: shrunken log2 fold change of peptide-encoding DNA abundance (4.5 h post-induction vs induction); higher = less antimicrobial activity (less host growth inhibition); details: time post-induction: 4.5 h; library: site-saturation at positions 5, 18, 19, 20
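Also: peptides expressed intracellularly from a pBAD plasmid library in pooled LB shake-flask culture, induced with 0.3% L-arabinose, DNA abundance read by NGS, three biological replicates, DESeq2 with apeglm shrinkage.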

Sequence	shrunken log2 fold change
RRIRWRPPRLPRPRPRPSNPPRP	-0.218
RRIRGRPPRLPRPRPRPPSKPRP	0.58
RRIRIRPPRLPRPRPRPETWPRP	0.142
RRIRARPPRLPRPRPRPRQPPRP	0.75
RRIRRRPPRLPRPRPRPHANPRP	0.275
RRIRERPPRLPRPRPRPDWTPRP	0.0763
RRIRVRPPRLPRPRPRPVMGPRP	0.216
RRIRTRPPRLPRPRPRPCKWPRP	-0.000493
RRIRRRPPRLPRPRPRPFQIPRP	-0.325
RRIRTRPPRLPRPRPRPNTHPRP	-0.451
RRIRVRPPRLPRPRPRPQSPPRP	-0.221
RRIRDRPPRLPRPRPRPERHPRP	1.06
RRIRLRPPRLPRPRPRPKWMPRP	-0.00339
RRIRFRPPRLPRPRPRPHQDPRP	-0.0339
RRIRSRPPRLPRPRPRPHWSPRP	-0.0455
RRIRKRPPRLPRPRPRPCGDPRP	0.466
RRIRRRPPRLPRPRPRPSASPRP	0.101
RRIRRRPPRLPRPRPRPERCPRP	0.322
RRIRQRPPRLPRPRPRPKESPRP	0.0355
RRIRNRPPRLPRPRPRPPKQPRP	0.22
RRIRMRPPRLPRPRPRPLHNPRP	-0.127
RRIRKRPPRLPRPRPRPQTTPRP	0.289
RRIRSRPPRLPRPRPRPNWAPRP	0.64
RRIRFRPPRLPRPRPRPIWDPRP	-0.319
RRIRHRPPRLPRPRPRPEHHPRP	-0.0643

Sequence	shrunken log2 fold change
RRIRLRPPRLPRPRPRPAFEPRP	0.36
RRIRHRPPRLPRPRPRPYLIPRP	-0.574
RRIRMRPPRLPRPRPRPKCGPRP	0.574
RRIRKRPPRLPRPRPRPSPNPRP	1.52
RRIRMRPPRLPRPRPRPEHPPRP	0.75
RRIRYRPPRLPRPRPRPVDMPRP	-0.0154
RRIRVRPPRLPRPRPRPIHKPRP	-0.203
RRIRRRPPRLPRPRPRPSFLPRP	-0.268
RRIRVRPPRLPRPRPRPFTWPRP	-0.327
RRIRCRPPRLPRPRPRPWVKPRP	-0.352
RRIRPRPPRLPRPRPRPQCNPRP	-0.0419
RRIRPRPPRLPRPRPRPWYFPRP	-1.02
RRIRKRPPRLPRPRPRPCEWPRP	-0.0222
RRIRIRPPRLPRPRPRPLKNPRP	-0.202
RRIRSRPPRLPRPRPRPWRSPRP	0.00174
RRIRYRPPRLPRPRPRPSLVPRP	-0.291
RRIRGRPPRLPRPRPRPKHLPRP	0.0257
RRIRFRPPRLPRPRPRPGRLPRP	0.262
RRIRPRPPRLPRPRPRPQIIPRP	-0.447
RRIRSRPPRLPRPRPRPFKRPRP	-0.013
RRIRFRPPRLPRPRPRPTELPRP	-0.161
RRIRPRPPRLPRPRPRPHPMPRP	-0.0882
RRIRQRPPRLPRPRPRPAREPRP	-0.0167
RRIRERPPRLPRPRPRPHKAPRP	-0.0142
RRIRARPPRLPRPRPRPMDWPRP	0.341

Source: the supplement of paper PMC9112550, “Optimization of the antimicrobial peptide Bac7 by deep mutational scanning” (BMC Biology, 2022)
